Results taken from paper PMC314469, “Protein Interaction Networks by Proteome Peptide Scanning” (PLoS Biology, 2004).

T1: Boi1 SH3 (BOI1_YEAST), P38041
T1 chain: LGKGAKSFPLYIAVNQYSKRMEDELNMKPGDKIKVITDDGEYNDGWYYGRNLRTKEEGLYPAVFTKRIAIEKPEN

T2: Boi2 SH3 (BOI2_YEAST), P39969
T2 chain: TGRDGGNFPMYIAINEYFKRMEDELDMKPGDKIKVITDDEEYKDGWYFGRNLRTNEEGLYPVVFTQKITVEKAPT

T3: Myo5 SH3 (MYO5_YEAST), Q04439
T3 chain: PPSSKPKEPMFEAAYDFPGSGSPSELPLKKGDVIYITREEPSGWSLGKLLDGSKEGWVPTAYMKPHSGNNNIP

T4: Rvs167 SH3 (RV167_YEAST), P39743
T4 chain: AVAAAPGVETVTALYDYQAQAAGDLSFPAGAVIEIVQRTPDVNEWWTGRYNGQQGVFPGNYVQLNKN

T5: Yfr024 SH3 (LSB3_YEAST), P43603
T5 chain: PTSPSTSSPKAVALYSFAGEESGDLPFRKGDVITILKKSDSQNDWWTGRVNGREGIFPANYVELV

T6: Yhr016c SH3 (YSC84_YEAST), P32793
T6 chain: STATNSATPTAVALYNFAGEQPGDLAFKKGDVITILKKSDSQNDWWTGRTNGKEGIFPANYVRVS


Biological target: T1, Boi1 SH3 (BOI1_YEAST), P38041
Test: SPOT array

normalised SPOT signal, Boehringer light units (BLU); mean over the file's lines of this peptide | Binder
133 | ADDLKYIPPIPQDF [YOR264W 26-39]
227 | YYYYKHYPNMPPIN [YMR313C 453-466]
106 | AGLYKLSPLYPFDV [YLR291C 296-309]
2730 | AFVPKRKPSLPQLA [YLR371W 185-198]
1440 | AGPRKYIPRAPAQG [YGL063W 287-300]
155 | AEIVKLTPKNPFYK [YGL056C 180-193]
1330 | YVYGRQDPKKPFFT [YNL137C 410-423]
107 | AALVKFVPSKPMSV [YBR118W 397-410]
62.8 | AGHIKTHPNSPTPG [YKL064W 452-465]
418 | AFYYKYYPVEPNSN [YFR020W 150-163]
110 | AFWWKKNPKTPSDY [YKL189W 13-26]
20.7 | AGMAKTKPDVPLSY [YLR216C 44-57]
925 | AERAKKAPSLPEGQ [YJR016C 376-389]
678 | YWGKKFEPERPFEF [YJR137C 1187-1200]

Biological target: T2, Boi2 SH3 (BOI2_YEAST), P39969
Test: SPOT array

normalised SPOT signal, Boehringer light units (BLU); mean over the file's lines of this peptide | Binder
15.8 | ADDLKYIPPIPQDF [YOR264W 26-39]
273 | YYYYKHYPNMPPIN [YMR313C 453-466]
0 | AGLYKLSPLYPFDV [YLR291C 296-309]
16.6 | AFVPKRKPSLPQLA [YLR371W 185-198]
39.1 | AGPRKYIPRAPAQG [YGL063W 287-300]
30.2 | AEIVKLTPKNPFYK [YGL056C 180-193]
23.2 | YVYGRQDPKKPFFT [YNL137C 410-423]
79.2 | AALVKFVPSKPMSV [YBR118W 397-410]
9 | AGHIKTHPNSPTPG [YKL064W 452-465]
52.6 | AFYYKYYPVEPNSN [YFR020W 150-163]
64.4 | AFWWKKNPKTPSDY [YKL189W 13-26]
0 | AGMAKTKPDVPLSY [YLR216C 44-57]
42.3 | AERAKKAPSLPEGQ [YJR016C 376-389]
266 | YWGKKFEPERPFEF [YJR137C 1187-1200]

Biological target: T3, Myo5 SH3 (MYO5_YEAST), Q04439
Test: SPOT array

normalised SPOT signal, Boehringer light units (BLU); mean over the file's lines of this peptide | Binder
86.7 | ADDLKYIPPIPQDF [YOR264W 26-39]
288 | YYYYKHYPNMPPIN [YMR313C 453-466]
133 | AGLYKLSPLYPFDV [YLR291C 296-309]
1740 | AFVPKRKPSLPQLA [YLR371W 185-198]
195 | AGPRKYIPRAPAQG [YGL063W 287-300]
102 | AEIVKLTPKNPFYK [YGL056C 180-193]
345 | YVYGRQDPKKPFFT [YNL137C 410-423]
281 | AALVKFVPSKPMSV [YBR118W 397-410]
60.3 | AGHIKTHPNSPTPG [YKL064W 452-465]
188 | AFYYKYYPVEPNSN [YFR020W 150-163]
65 | AFWWKKNPKTPSDY [YKL189W 13-26]
158 | AGMAKTKPDVPLSY [YLR216C 44-57]
389 | AERAKKAPSLPEGQ [YJR016C 376-389]
385 | YWGKKFEPERPFEF [YJR137C 1187-1200]

Biological target: T4, Rvs167 SH3 (RV167_YEAST), P39743
Test: SPOT array

normalised SPOT signal, Boehringer light units (BLU); mean over the file's lines of this peptide | Binder
69.2 | ADDLKYIPPIPQDF [YOR264W 26-39]
310 | YYYYKHYPNMPPIN [YMR313C 453-466]
17.9 | AGLYKLSPLYPFDV [YLR291C 296-309]
294 | AFVPKRKPSLPQLA [YLR371W 185-198]
94.4 | AGPRKYIPRAPAQG [YGL063W 287-300]
99.2 | AEIVKLTPKNPFYK [YGL056C 180-193]
201 | YVYGRQDPKKPFFT [YNL137C 410-423]
106 | AALVKFVPSKPMSV [YBR118W 397-410]
21.2 | AGHIKTHPNSPTPG [YKL064W 452-465]
25.5 | AFYYKYYPVEPNSN [YFR020W 150-163]
72.6 | AFWWKKNPKTPSDY [YKL189W 13-26]
61.7 | AGMAKTKPDVPLSY [YLR216C 44-57]
4 | AERAKKAPSLPEGQ [YJR016C 376-389]
350 | YWGKKFEPERPFEF [YJR137C 1187-1200]

These binders were tested against Sho1 SH3 (SHO1_YEAST), P40073 (assay: SPOT array).
Sequence of Sho1 SH3 (SHO1_YEAST), P40073 (P40073 295-366): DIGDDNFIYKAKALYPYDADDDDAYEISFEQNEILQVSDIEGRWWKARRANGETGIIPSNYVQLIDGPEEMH

normalised SPOT signal, Boehringer light units (BLU); mean over the file's lines of this peptide | Binder
59.5 | ADDLKYIPPIPQDF [YOR264W 26-39]
59.1 | YYYYKHYPNMPPIN [YMR313C 453-466]
26.3 | AGLYKLSPLYPFDV [YLR291C 296-309]
78.9 | AFVPKRKPSLPQLA [YLR371W 185-198]
63 | AGPRKYIPRAPAQG [YGL063W 287-300]
39.3 | AEIVKLTPKNPFYK [YGL056C 180-193]
118 | YVYGRQDPKKPFFT [YNL137C 410-423]
32.5 | AALVKFVPSKPMSV [YBR118W 397-410]
163 | AGHIKTHPNSPTPG [YKL064W 452-465]
51.5 | AFYYKYYPVEPNSN [YFR020W 150-163]
900 | AFWWKKNPKTPSDY [YKL189W 13-26]
52.2 | AGMAKTKPDVPLSY [YLR216C 44-57]
173 | AERAKKAPSLPEGQ [YJR016C 376-389]
460 | YWGKKFEPERPFEF [YJR137C 1187-1200]

Biological target: T5, Yfr024 SH3 (LSB3_YEAST), P43603
Test: SPOT array

normalised SPOT signal, Boehringer light units (BLU); mean over the file's lines of this peptide | Binder
6 | ADDLKYIPPIPQDF [YOR264W 26-39]
391 | YYYYKHYPNMPPIN [YMR313C 453-466]
0 | AGLYKLSPLYPFDV [YLR291C 296-309]
718 | AFVPKRKPSLPQLA [YLR371W 185-198]
233 | AGPRKYIPRAPAQG [YGL063W 287-300]
2 | AEIVKLTPKNPFYK [YGL056C 180-193]
159 | YVYGRQDPKKPFFT [YNL137C 410-423]
184 | AALVKFVPSKPMSV [YBR118W 397-410]
0 | AGHIKTHPNSPTPG [YKL064W 452-465]
115 | AFYYKYYPVEPNSN [YFR020W 150-163]
303 | AFWWKKNPKTPSDY [YKL189W 13-26]
87.4 | AGMAKTKPDVPLSY [YLR216C 44-57]
44.4 | AERAKKAPSLPEGQ [YJR016C 376-389]
1160 | YWGKKFEPERPFEF [YJR137C 1187-1200]

Biological target: T6, Yhr016c SH3 (YSC84_YEAST), P32793
Test: SPOT array

normalised SPOT signal, Boehringer light units (BLU); mean over the file's lines of this peptide | Binder
16.1 | ADDLKYIPPIPQDF [YOR264W 26-39]
253 | YYYYKHYPNMPPIN [YMR313C 453-466]
17.7 | AGLYKLSPLYPFDV [YLR291C 296-309]
47.2 | AFVPKRKPSLPQLA [YLR371W 185-198]
45.1 | AGPRKYIPRAPAQG [YGL063W 287-300]
8.4 | AEIVKLTPKNPFYK [YGL056C 180-193]
32.8 | YVYGRQDPKKPFFT [YNL137C 410-423]
55.1 | AALVKFVPSKPMSV [YBR118W 397-410]
14.3 | AGHIKTHPNSPTPG [YKL064W 452-465]
74.6 | AFYYKYYPVEPNSN [YFR020W 150-163]
112 | AFWWKKNPKTPSDY [YKL189W 13-26]
27.3 | AGMAKTKPDVPLSY [YLR216C 44-57]
0 | AERAKKAPSLPEGQ [YJR016C 376-389]
324 | YWGKKFEPERPFEF [YJR137C 1187-1200]
